Legend:
[1] = target: LH1-RC complex of Rba. sphaeroides IL106 (wild type) (Rhodobacter sphaeroides f. sp. denitrificans strain IL106) (UniProt Q3J1A4); assay: sucrose density gradient centrifugation; supernatant of chromatophores solubilised with 1.0% w/v DDM on a stepwise sucrose gradient (10-40% w/v), 20 mM Tris-HCl pH 8.0, 0.05% w/v DDM, 4 °C, 150,000 x g, 6 h; ratio from volumes and absorption of the dimeric and monomeric layers
[2] = target: LH1-RC complex of the protein-U-deleted strain IL106-ΔU (Rhodobacter sphaeroides f. sp. denitrificans strain IL106) (UniProt Q3J1A4); assay: as above

| Substance | ratio of dimeric to monomeric LH1-RC [1] | stoichiometry N [1] | ratio of dimeric to monomeric LH1-RC [2] | stoichiometry N [2] |
| --- | --- | --- | --- | --- |
| LH1-RC complex of Rba. sphaeroides IL106 (wild type) (from UniProt Q3J1A4 1-58; Q3J1A3 1-49; P0C0Y8 1-282; P0C0Y9 1-308; P0C0Y7 1-260; P13402 1-82) | 0.44 | 2 |  |  |
| LH1-RC complex of the protein-U-deleted strain IL106-ΔU (from UniProt Q3J1A4 1-58; Q3J1A3 1-49; P0C0Y8 1-282; P0C0Y9 1-308; P0C0Y7 1-260; P13402 1-82) |  |  | 0.15 | 2 |

Source: PMC8564508
